Data reported in the DeepSol protein solubility set.

Assay: soluble on expression in E. coli; label from the status in PepcDB or PDB records

Sequence | soluble on expression in E. coli
MGSDKIHHHHHHMRANRIGYVYSNKRFAGELLEFNTLEGYEYSFTYAASYIASGLPQIGYKLPITHEPYRRNYLPPFFANLMSEGWVRRHQARIARLDQDDKFGLLLGNGAELIGPVSVFTEYRGDNISAAIEVIAVPMKSLKGYQIDFPRCEFNEVAMESLGGVSISGVQPKMFLTYAEGNPKTLTNAVGMGPYIVKPSPNDFPELAENEFMVMQLCKAVGFNVAEHHLVPFSCGQLAYVTARFDLDRETGRRHEFIEDLASALNVAPGNKSSDTLSYEKAIKEAYQLSGGHVQLLKDGFLQVLMAYIVGNNDLHLKNISLSRASDSNRASGYTPIYDMVSVAPYRQYDNSGELSIWLLESEVERGFSTSSYEHYGYYTGHDFITFAEAIGLGERAGKVLMNDLGKKVAKARDKVIANAPGSEQLKQIISERITARLSTLTRPALR | not soluble
MGSDKIHHHHHHMRATLAAAARDLNAAARFGADTACREGYHPVMLNTIIHGTPTDQPPLLIAHGLYGSGRNWGVIAKRLADERQVIAVDMRNHGLSPKTQSHSYVDLAEDLAEVIAAHGGRMDVVGHSMGGKAAMMLALRHPEAVNRLVVADIAPVSYQHTQAHFITAMRSVDLARVTRRSDAQEQLAAAGVDAMLQSFFTQSLDVENKSWRLNLDTLEREMPHILSFPEVETHWDGTALFLTGAHSDYVLPEHRPQIKRLFPAARFAKIPGAGHWLHAEKPREFEATVRGFLNA | not soluble
MGSDKIHHHHHHMRFLAYFGHLNIDVLISVDSIPREGSVNVKDLRPRFGGTAGNFAIVAQKFRIPFDLYSAVGMKTHREYLAMIESMGINTGHVEKFEDESGPICYIATDGKKQVSFMHQGAMEKWKPQLADEYEYVHFSTGPNYLDMAKSIRSKIIFDPSQEIHKYSKDELKKFHEISYMSIFNDHEYRVFREMTGLSSPKVTTIVTNGERGSSLFMDGKKYDFPAIPSSGDTVGAGDSFRAGLYLALYNRRSIEKGMIYGTIIAHHVIDDGIENFSLNMEDLERETENYRRMFTKRS | not soluble
MGSDKIHHHHHHMRFPMMELDEKIYRFFENRGRDVTVEYLNLGLGYTAVTTSDGGIGIAYTCFGAKESCSFMNSYYDFEGRPAVELLEKIKSTHPLERTMALALVNALNYEYALSLPEDKENRALFESFGIGEKTRVAMVGYFAPIAGMLGKMGALLEVIDISKKIGHQADFYDRLENWAQVAFITSTSILNSTTEDILRHAGKGVKTVMLGPSTPMIGEVFSHLPVHMLAGTVPLEKEKVLKAIRHGFGTREIQRFSRKSYLALF | not soluble
MGSDKIHHHHHHMRGEVKKIIEAIGDIFIGHEDVIRKVLAVALVNGNILFEDYPGLGKTLLAKAFAKILGLKFKRIQFTPDLLPADIIGTKVWKPEKGAFEVVKGPIFTNILLADEINRAPPKTQSALLEAMEERQVTIEGETFKLERPFFIIATQNPLELEGTYPLPEAQLDRFLVRLNIGYPRNEEDELEILKARLRWGKDDPTSDISPIISREDFIRMQEEVERGVIIHDDILRYIVRLVRRIREDERIEAGPSPRGGLALMKLAKANAFIEGRSYVIPDDVKYFAVEALAHRIVLKPEYSLERGIAEEIIREVLEEVPVPKDIRY | not soluble
MGSDKIHHHHHHMRIAQVAPLWERVPPPAYGGIELVVGLLTDELVRRGHEVTLFASGDSISLAKLVSVHPRALRLDRTIKDYSVYETLNLASAYERAEEFDIIHSHIGHGALAYANLVTTPTVHTLHGIFTSDNEKMFSFGKKQPYVSISDAQREPRLGLNCIATVYNGIDVSSYNFHAQPEDPPYLAFLGRMSPEKGAHLAIEIAKQAGWCLKMAGKVDVVDVEYFEKEIKPHIDGEQIQYLGEANHAQKNALMGGAFATLFPITWREPFGLVMVESMASGTPVIAMNLGSTEEVISHGKTGFLCNNLQECISAVDRVIELDRYTCRQYVEDLFSVEQMTDGYEAVYQKIIAERFSRNGHSRNLIALSSDRI | not soluble
MGSDKIHHHHHHMRIAVIGGGSSYTPELVKGLLDISEDVRIDEVIFYDIDEEKQKIVVDFVKRLVKDRFKVLISDTFEGAVVDAKYVIFQFRPGGLKGRENDEGIPLKYGLIGQETTGVGGFSAALRAFPIVEEYVDTVRKTSNATIVNFTNPSGHITEFVRNYLEYEKFIGLCNVPINFIREIAEMFSARLEDVFLKYYGLNHLSFIEKVFVKGEDVTEKVFENLKLKLSNIPDEDFPTWFYDSVRLIVNPYLRYYLMEKKMFKKISTHELRAREVMKIEKELFEKYRTAVEIPEELTKRGGSMYSTAAAHLIRDLETDEGKIHIVNTRNNGSIENLPDDYVLEIPCYVRSGRVHTLSQGKGDHFALSFIHAVKMYERLTIEAYLKRSKKLALKALLSHPLGPDVEDAKDLLEEILEANREYVKLG | not soluble
MGSDKIHHHHHHMRINHNISALNAWRNISQTQYSMSKTLERLSSGLRINRAGDDAAGLAISEKMRGQIKGLNMAIKNAQDAISLIQTAEGALTEVHSILQRMRELAVQAASDTNTDVDREQIQKEIDQLREEIDRIARTTEFNTKKLLDGKLESFRSQVDAKVVTGGNINVQLGSVSSAAVEGTYVIEVGQFNGAETSELDVKITLFTAGGYSTTVVTITVGSATVGNINFTWDTDVLSINDFGGALPKNEVVDSAVVRVEAIYTSASQLIFQIGANEGHNMVAGIDDMSAAALGLTTVSLDVTTQDAAERAIMVVDAAIHRVSTARAALGAVQNRLEHTISNLGVAAENLTAAESRIRDADMAKEMMEFTKQQILLQSSMAMLAQSNTLPQNVLQLMR | not soluble
MGSDKIHHHHHHMRIQQLHYIIKIVECGSMNEAAKQLFITQPSLSNAVKDLEMEMGITIFNRNPKGITLTKDGVEFLSYARQIIEQTSLLEDRYKNHNTGRELFSVSSQHYAFVVNAFVSLLKRTDMTRYELFLRETRTWEIIDDVKNFRSEIGVLFINDYNRDVLTKLFDDNHLTASPLFKAQPHIFVSKSNPLATKSLLSMDDLRDFPYLSYDQGIHNSFYFSEEMMSQMPHNKSIVVSDRATLFNLMIGLDGYTVASGILNSNLNGDQIVAIPLDVPDEIDIVFIKHEKANLSKMGERFIEYLLEEVTFD | not soluble
MGSDKIHHHHHHMRITEMADRVSRTGIGKLAGASHQLHTLNTNERDNSAMAETSIEWTDATWNPVAGCTILTAGCTNCYAMRMAARLEAMGTEKYQGLTRKTGGRAKWTGKVVTDPKSLAIPATWSKPRRVFVNSMSDLFHVDVPADFIRQVWTVMEETPRHTYQILTKRPEVMASVLTRGEFPVLSNVWLGTSVEDSRVLSRLDDLRRVPASIRFVSLEPLIGSVAGANLTDINWAIVGGESGPGARDMDPRWVDEIEAMCRRSGTAFFFKQWGGRNKKATGRTLNGRTYDEMPAAI | not soluble
MGSDKIHHHHHHMRKDISTNDKDINDLFLKVVDLVTQARERVATAINIAEVFTKFHIGQYIVEYEQKGETRAEYGKAVLKELSKRLTDRLGDGWSYSTLKNIRQFYIVFSKGLTSGCPKSSQKANQWLADYSKAEEHISEPTFALSWSHYLILMRVENPDARSFYEIECTQQQWSKRQLSRQVGSCLYERLALSRNKDEVMRLAKEGQTIGKPSDIIKNPITLEFLGLKPDAVYSESKLENAIINKMQQFLLELGKGFLFEARQKRFTFDEQHFFVDLVFYNRLLQCYVLIDLKIDKLTHQDLGQMQMYVNYYDRYVKQDFEKPTIGILLCKEKNDALVELTLPKDANIYASAYQLYLPNKALLQAKVKEWIEEFEENEELKKLEENE | not soluble
MGSDKIHHHHHHMRKITLRSKLDGREIVFEENQNLFDIAREYQKYYRYKILAARVNNRIIELFRTPDRSGELEFLDLTDPDGLRIYQRGLVFLASLAVRKLNSEWRLKVLHSLGKGIYCEIYKGNELIVPDQNQVFAIKDKMRELVEKDLPIEKRTFYKDEAREILMKEGLVKTVNLFKYRKKRTVKLYHCDGFWAYFYGYLPPSTGRIDVFDVQPYNQGLVLVHPDPKTRELPVIHMPKLSQVFLEYARWLNVLELEYVSDLNDIIARGERHVADLMLLSEALHEKKISDIADEIAKDKRKRLILIAGPSSSGKTTFAKRLSLQLRVNGLKPVAISLDDYFVDREKTPRDENGNYDFDSIEALDIELFNRNLQDLLAGKEVVLPKFNFKTGKRMRGPTLKLEKDNIIIVEGIHGLNERLTASIPKEQKFKIYVSALTQLNIDDHNRVTTTDTRLIRRIVRDYKFRGHTAYDTLKMWPNVRKGEERNIFPFQEEADVMFNSALVYEIPVLRIFAEPLLVQVPEDVPEYSEALRLLKLLDFFLPITNIEDIPDKSILREFIGRSIFKY | not soluble
MGSDKIHHHHHHMRMAQVVLENVTKVYENKVVAVKNANLVVEDKEFVVLLGPSGCGKTTTLRMIAGLEEITDGKIYIDGKVVNDVEPKDRDIAMVFQNYALYPHMTVYENMAFGLKLRKYPKDEIDRRVREAAKILGIENLLDRKPRQLSGGQRQRVAVGRAIVRNPKVFLFDEPLSNLDAKLRVQMRSELKKLHHRLQATIIYVTHDQVEAMTMADKIVVMKDGEIQQIGTPHEIYNSPANVFVAGFIGSPPMNFVNARVVRGEGGLWIQASGFKVKVPKEFEDKLANYIDKEIIFGIRPEDIYDKLFALAPSPENTITGVVDVVEPLGSETILHVKVGDDLIVASVNPRTQAKEEQKIDLVLDMTRMHAFDKETEKAII | not soluble
MGSDKIHHHHHHMRNASIEQYDATPRAVVAMGTDYPDGYLLPRHRHRRAQLLYGASGVMQVRTGDAGWVVPPQRAVWIPPGVEHEVRMLGVSTRSLYIEPGSAMAMPAHCQVLAVSPLLRQLLLAAVDMPLEYDTEGRDGALATLLLHELAAAETLPLHVPLPPEPRWLALCEAFLVEPDIRASAERWAGLLHTSLRSFNRTFRRYTGLSFGAWKQRACVVQALARLAGGETVTAIALDCGYQSPAAFSTMFRRVLGQPPSAFQAGALRSPGGP | not soluble
MGSDKIHHHHHHMRNCIIAQSGGPTAVINASAVGIYEKNLETKYFDKVYFGINGIEGILNKNIIDSDSLNKDNVLNLKQTPSSGLGSCRYKLADYKINSYDYDRVINILDEYEIDTLFYIGGNDSMDTVMKFSQYCKNTTCKIKFIGIPKTIDNDLLGTDNCPGFGSAAKLISTLIMETYLDFSIYKNNGIFIVETMGRDTGWLAASSSLARLNDTPLVDLIYLPEIDFYEDKFIEDVRKIFKEKNKAYIVASEGIRDKYGNFICEQKTSAHDKFGHSQLGGVSNYLKNLIVSSSITTRVKTLELGVIQRCAMHLASDTDLKQAAEVGAYGIELSKKGYTGVMAIINRTCNNPYKYEVSHTDISKIANKTKYFPKEWINEECNYITDEALNYLYPLIQGKPDIKYKNGLPYFSIIY | not soluble
MGSDKIHHHHHHMRPKILFVVNVDWFFVSHRLPIAVAAQNVGYDVHIACQVTDKKQELEGYGFTVHSISLDRSGTSVLKEFQTMLSIYRLIKKISPALMHMITVKPVIYAGIAARILGVSKVASISGLGFIFIAEGFKSKLLKSLITILYKLALNDGKSRVIFQNDSDKGLFIRRGIISDSNTLLVRGSGVDLDKYQVKPEPESYPVIVLLARLLIDKGVLEFVQAAEILKSKGVPCKMVLAGDTDENPKSVSKNQITDWVNKGIVEYWGYSKDVNSTYANCHIAVLPSYREGLPKSLIEAAACGRAVITTDVPGCRDAITPNKTGLLVPVKSSLELALAIETLCNDSKLRQSLGQEGRQLAEQAFDIKSVIQIHLNLYADLLKGKPSV | not soluble
MGSDKIHHHHHHMRRDTFAGRRTQQPACQIHRFARTDKCYRHQKNPAERRHFGLSQCPHRESIVFVYTKMYILLMDVDRVQVRAFRANIAEYLEQALQGQRIVIERHGGPVAALVPLADLYQITRKEKAMGHRIALNNVSGGEGKTFLTFHLAFALADLGFRVAVLDCDPQASLTKRFGLHDEEGAHQSGAETILPVFEVDDDPALPSPVTVEGIDVWPANRQLIDADTRIMTNMMRLGNLGEALDRIQDQYDFILLDTRPNVSPLLTASTAAARLFLVPIGAHKGLENLDELLRLVKLARKQDRSARIAFFIPNKVTSTRMGKNVLQSISAYTEVAPISPPVRQATIGPEAELFRTGITRHAPKSPLAGDIRTLANALVKATEQVEDAQ | not soluble
